Laboratory results as given in patent publication US20180311371A1 (Hoffmann-La Roche, published 2018).
Read-outs that look alike come from different tables or passages of the source.

What was measured:
[1] = target: T1, minipig TPBG, full length, cell surface expressed on CHO-K1 cells (minipig); assay: flow cytometry on CHO-K1 stably expressing minipig TPBG; Fab-PE fusion
T1 construct: also called pgTPBG; mpTPBG
T1 chain: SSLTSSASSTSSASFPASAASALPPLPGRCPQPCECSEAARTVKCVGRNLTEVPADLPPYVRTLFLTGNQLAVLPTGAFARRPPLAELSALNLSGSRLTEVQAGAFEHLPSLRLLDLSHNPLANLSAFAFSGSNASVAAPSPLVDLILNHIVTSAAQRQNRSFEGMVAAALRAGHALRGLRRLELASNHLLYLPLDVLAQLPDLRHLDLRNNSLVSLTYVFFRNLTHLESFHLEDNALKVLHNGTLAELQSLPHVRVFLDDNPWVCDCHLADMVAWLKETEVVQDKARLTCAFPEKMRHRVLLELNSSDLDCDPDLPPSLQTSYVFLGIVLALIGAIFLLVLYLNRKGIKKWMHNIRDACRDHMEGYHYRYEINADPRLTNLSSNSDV

[2] = target: T2, huTPBG (recombinant human TPBG immobilised on the Biacore chip) (human, UniProt Q13641 32-355, limits assumed); assay: SPR Biacore T200; huTPBG amine-coupled, Fab-PE injected; pH 5.5
T2 construct: also called human TPBG antigen
T2 sequence: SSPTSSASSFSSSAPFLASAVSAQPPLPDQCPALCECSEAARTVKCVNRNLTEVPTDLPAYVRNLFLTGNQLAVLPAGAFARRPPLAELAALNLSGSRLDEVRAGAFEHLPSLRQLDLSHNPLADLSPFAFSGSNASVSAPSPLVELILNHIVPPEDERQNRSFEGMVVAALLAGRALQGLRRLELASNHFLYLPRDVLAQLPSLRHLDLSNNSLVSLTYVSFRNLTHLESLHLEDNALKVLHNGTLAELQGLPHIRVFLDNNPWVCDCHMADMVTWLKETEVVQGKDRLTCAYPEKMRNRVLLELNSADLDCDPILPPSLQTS

[3] = target: T3, human TPBG (trophoblast glycoprotein), full length, cell surface expressed (human, UniProt Q13641 32-420); assay: cell-based or functional assay
T3 sequence: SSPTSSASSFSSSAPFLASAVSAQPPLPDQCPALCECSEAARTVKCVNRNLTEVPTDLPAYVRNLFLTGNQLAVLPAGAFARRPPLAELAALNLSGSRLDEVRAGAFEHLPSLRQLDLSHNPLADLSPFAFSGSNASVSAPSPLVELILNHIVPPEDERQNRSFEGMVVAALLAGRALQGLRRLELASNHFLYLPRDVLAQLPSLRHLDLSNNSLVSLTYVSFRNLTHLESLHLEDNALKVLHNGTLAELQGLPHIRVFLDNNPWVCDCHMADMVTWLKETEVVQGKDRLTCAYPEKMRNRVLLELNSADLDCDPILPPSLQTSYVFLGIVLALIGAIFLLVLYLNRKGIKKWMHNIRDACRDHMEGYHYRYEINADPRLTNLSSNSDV

[4] = target: T2, huTPBG (recombinant human TPBG …); assay: SPR Biacore T200; huTPBG amine-coupled, Fab-PE injected; pH 7.4
[5] = target: T1, minipig TPBG, full length, cell surface …; assay: cell-based or functional assay
[6] = target: T3, human TPBG (trophoblast glycoprotein), …; assay: cell-based or functional assay; remark: listed apart in the source
[7] = target: T3, human TPBG (trophoblast glycoprotein), …
[8] = target: T3, human TPBG (trophoblast glycoprotein), …; assay: flow cytometry on CHO-K1 stably expressing human TPBG; Fab-PE fusion
[9] = target: T3, human TPBG (trophoblast glycoprotein), …; assay: cell-based or functional assay; remark: listed apart in the source
[10] = target: T3, human TPBG (trophoblast glycoprotein), …; assay: cell-based or functional assay; remark: listed apart in the source
[11] = target: T3, human TPBG (trophoblast glycoprotein), …; assay: cell-based or functional assay; remark: listed apart in the source

B1: anti-TPBG 051 Fab-PE fusion protein (refolded from E. coli inclusion bodies) (Fab)
heavy: MEVQLLESGGGLLQPGGSLRLSCAASGFTFSIYWMTWVRQAPGKGLEWVSAISGSGGSTYYADSVKGRFTISRDNSKNTLYLQMNSLRAEDTAVYYCAKDYYSNVYWGQGTLVTVSSASTKGPSVFPLAPSSKSTSGGTAALGCLVKDYFPEPVTVSWNSGALTSGVHTFPAVLQSSGLYSLSSVVTVPSSSLGTQTYICNVNHKPSNTKVDKKVEPKSCDKTHKASGGRHRQPRGWEQLGGGGGSPTGAEFLGDGGDVSFSTRGTQNWTVERLLQAHAQLEERGYVFVGYHGTFLEAAQSIVFGGVAARSQDLAAIWAGFYIAGDPALAYGYAQDQEPDAAGRIRNGALLRVYVPASSLPGFYRTSLTLAAPEAAGEVERLIGHPLPLALDAITGPEEEGGRLETILGWPLAERTVVIPSAIPTDPRNVGGDLDPSSIPDKEQAISALPDYASQPGKPPREDLK
light: MDIQMTQSPSSVSASVGDRVTITCRASQGIYSWLAWYQQKPGKAPKLLIYAASSLQSGVPSRFSGSGSGTDFTLTISSLQPEDFATYYCQQSDSPPYTFGQGTKLEIKRTVAAPSVFIFPPSDEQLKSGTASVVCLLNNFYPREAKVQWKVDNALQSGNSQESVTEQDSKDSTYSLSSTLTLSKADYEKHKVYACEVTHQGLSSPVTKSFNRGEC
notes: also called Fab-PE comprising antibody 051
EC50 [1]: 16.9 nM
Kd [2]: 0.292 nM
koff [2]: 0.000113 s⁻¹
kon [2]: 386000 M⁻¹ s⁻¹
EC50 cytotoxicity, Fab-PE fusion, H1975, replicate 1 [3]: 0.016 nM
EC50 cytotoxicity, Fab-PE fusion, H1975, replicate 2 [3]: 0.014 nM
Kd [4]: 0.121 nM
koff [4]: 3.46e-05 s⁻¹
kon [4]: 286000 M⁻¹ s⁻¹
EC50 cytotoxicity, Fab-PE fusion, stable CHO-K1 pgTPBG [5]: 1.37 nM
X-fold lower potency pgTPBG versus huTPBG [5]: 51.7 fold
EC50 cytotoxicity, Fab-PE fusion, stable CHO-K1 huTPBG [6]: 0.03 nM
EC50 [7]: 1.25 nM
EC50 [8]: 12.4 nM
EC50 protein synthesis inhibition (luciferase), BxPC-3, replicate 1 [9]: 0.027 nM
EC50 protein synthesis inhibition (luciferase), BxPC-3, replicate 2 [9]: 15 pM
X-fold higher potency than Fab-PE fusion protein of H8, H1975, 10 min [10]: 1.1 fold
X-fold higher potency than Fab-PE fusion protein of H8, H1975, 30 min [10]: 1 fold
X-fold higher potency than Fab-PE fusion protein of H8, H1975, 60 min [10]: 1 fold
X-fold higher potency than Fab-PE fusion protein of H8, H1975, continuous [10]: 1.1 fold
EC50 proliferation, H1975, 10 min exposure [11]: 0.241 nM
EC50 proliferation, H1975, 30 min exposure [11]: 0.204 nM
EC50 proliferation, H1975, 60 min exposure [11]: 0.18 nM
EC50 proliferation, H1975, continuous exposure [11]: 0.014 nM

B2: anti-TPBG 091 Fab-PE fusion protein (refolded from E. coli inclusion bodies) (Fab)
heavy: MEVHLLESGGGLVHPGGSLRLSCAASGFTFRSDAMHWVRQAPGKGLEWVSGVSGSGGSPYYADSVKGRFTISRDDSKTTLYLQMNSLRAEDTAVYYCATGGSIAGSYYYYPMDVWGQGTTVTVSSASTKGPSVFPLAPSSKSTSGGTAALGCLVKDYFPEPVTVSWNSGALTSGVHTFPAVLQSSGLYSLSSVVTVPSSSLGTQTYICNVNHKPSNTKVDKKVEPKSCDKTHKASGGRHRQPRGWEQLGGGGGSPTGAEFLGDGGDVSFSTRGTQNWTVERLLQAHAQLEERGYVFVGYHGTFLEAAQSIVFGGVAARSQDLAAIWAGFYIAGDPALAYGYAQDQEPDAAGRIRNGALLRVYVPASSLPGFYRTSLTLAAPEAAGEVERLIGHPLPLALDAITGPEEEGGRLETILGWPLAERTVVIPSAIPTDPRNVGGDLDPSSIPDKEQAISALPDYASQPGKPPREDLK
light: not shown
notes: also called Fab-PE comprising antibody 091
EC50 [1]: 10.8 nM
Kd [2]: 8.89 nM
koff [2]: 0.00201 s⁻¹
kon [2]: 226000 M⁻¹ s⁻¹
EC50 cytotoxicity, Fab-PE fusion, H1975, replicate 1 [3]: 0.005 nM
EC50 cytotoxicity, Fab-PE fusion, H1975, replicate 2 [3]: 0.003 nM
Kd [4]: 0.461 nM
koff [4]: 0.000129 s⁻¹
kon [4]: 280000 M⁻¹ s⁻¹
EC50 cytotoxicity, Fab-PE fusion, stable CHO-K1 pgTPBG [5]: 0.15 nM
X-fold lower potency pgTPBG versus huTPBG [5]: 3.3 fold
EC50 cytotoxicity, Fab-PE fusion, stable CHO-K1 huTPBG [6]: 0.05 nM
EC50 [7]: 0.89 nM
EC50 [8]: 8.5 nM
EC50 protein synthesis inhibition (luciferase), BxPC-3, replicate 1 [9]: 0.014 nM
EC50 protein synthesis inhibition (luciferase), BxPC-3, replicate 2 [9]: 7 pM
X-fold higher potency than Fab-PE fusion protein of H8, H1975, 10 min [10]: 4 fold
X-fold higher potency than Fab-PE fusion protein of H8, H1975, 30 min [10]: 3.3 fold
X-fold higher potency than Fab-PE fusion protein of H8, H1975, 60 min [10]: 4.2 fold
X-fold higher potency than Fab-PE fusion protein of H8, H1975, continuous [10]: 3.7 fold
EC50 proliferation, H1975, 10 min exposure [11]: 0.057 nM
EC50 proliferation, H1975, 30 min exposure [11]: 0.062 nM
EC50 proliferation, H1975, 60 min exposure [11]: 0.043 nM
EC50 proliferation, H1975, continuous exposure [11]: 0.003 nM

B3: anti-TPBG 097 Fab-PE fusion protein (refolded from E. coli inclusion bodies) (Fab)
heavy: MEVQLLESGGGLAQPGGSLRLSCAASGFTFNNDAMTWVRQAPGKGLEWVSAISGSGGSTYYADSVKGRFTISRDNSKNTLYLQMNSLRAEDTAVYYCAKGGSWGDWYYYFYPMDVWGQGTTVTVSSASTKGPSVFPLAPSSKSTSGGTAALGCLVKDYFPEPVTVSWNSGALTSGVHTFPAVLQSSGLYSLSSVVTVPSSSLGTQTYICNVNHKPSNTKVDKKVEPKSCDKTHKASGGRHRQPRGWEQLGGGGGSPTGAEFLGDGGDVSFSTRGTQNWTVERLLQAHAQLEERGYVFVGYHGTFLEAAQSIVFGGVAARSQDLAAIWAGFYIAGDPALAYGYAQDQEPDAAGRIRNGALLRVYVPASSLPGFYRTSLTLAAPEAAGEVERLIGHPLPLALDAITGPEEEGGRLETILGWPLAERTVVIPSAIPTDPRNVGGDLDPSSIPDKEQAISALPDYASQPGKPPREDLK
light: not shown
notes: also called Fab-PE comprising antibody 097
EC50 [1]: 15.4 nM
Kd [2]: 7.49 nM
koff [2]: 0.00605 s⁻¹
kon [2]: 808000 M⁻¹ s⁻¹
EC50 cytotoxicity, Fab-PE fusion, H1975, replicate 1 [3]: 0.013 nM
EC50 cytotoxicity, Fab-PE fusion, H1975, replicate 2 [3]: 0.013 nM
Kd [4]: 1.97 nM
koff [4]: 0.00121 s⁻¹
kon [4]: 614000 M⁻¹ s⁻¹
EC50 cytotoxicity, Fab-PE fusion, stable CHO-K1 pgTPBG [5]: 0.14 nM
X-fold lower potency pgTPBG versus huTPBG [5]: 3.4 fold
EC50 cytotoxicity, Fab-PE fusion, stable CHO-K1 huTPBG [6]: 0.04 nM
EC50 [7]: 0.64 nM
EC50 [8]: 5.6 nM
EC50 protein synthesis inhibition (luciferase), BxPC-3, replicate 1 [9]: 0.022 nM
EC50 protein synthesis inhibition (luciferase), BxPC-3, replicate 2 [9]: 8 pM
X-fold higher potency than Fab-PE fusion protein of H8, H1975, 10 min [10]: 0.9 fold
X-fold higher potency than Fab-PE fusion protein of H8, H1975, 30 min [10]: 0.9 fold
X-fold higher potency than Fab-PE fusion protein of H8, H1975, 60 min [10]: 1.1 fold
X-fold higher potency than Fab-PE fusion protein of H8, H1975, continuous [10]: 1.1 fold
EC50 proliferation, H1975, 10 min exposure [11]: 0.211 nM
EC50 proliferation, H1975, 30 min exposure [11]: 0.189 nM
EC50 proliferation, H1975, 60 min exposure [11]: 0.203 nM
EC50 proliferation, H1975, continuous exposure [11]: 0.013 nM
